In patent US20240287165A1 (GENERAL HOSPITAL, published 2024):
Changes are numbered by the printed parent chain. Read-outs that look alike come from different tables or passages of the source.

Legend:
[1] = biological target: full-length wild type human ApoE3 recombinant protein (His-tagged) (human) (UniProt P02649); test: ELISA, negative control
[2] = biological target: wild type ApoE peptide KLH-…-CONH2 (human); test: ELISA, negative control
[3] = biological target: ApoEch peptide KLH-…-CONH2 (human); test: ELISA, negative control
[4] = biological target: full-length ApoE3ch (ApoE3 Christchurch R136S) mutant recombinant protein (His-tagged) (human) (UniProt P02649); test: ELISA, negative control
[5] = biological target: T1, bovine serum albumin (BSA) (bovine, UniProt P02769 25-607); test: ELISA, BSA as control coat, antibody diluted 1:1000 to 1:32000, absorbance 450 nm; x axis counts the dilution factor
T1 sequence (P02769 25-607 limits assumed): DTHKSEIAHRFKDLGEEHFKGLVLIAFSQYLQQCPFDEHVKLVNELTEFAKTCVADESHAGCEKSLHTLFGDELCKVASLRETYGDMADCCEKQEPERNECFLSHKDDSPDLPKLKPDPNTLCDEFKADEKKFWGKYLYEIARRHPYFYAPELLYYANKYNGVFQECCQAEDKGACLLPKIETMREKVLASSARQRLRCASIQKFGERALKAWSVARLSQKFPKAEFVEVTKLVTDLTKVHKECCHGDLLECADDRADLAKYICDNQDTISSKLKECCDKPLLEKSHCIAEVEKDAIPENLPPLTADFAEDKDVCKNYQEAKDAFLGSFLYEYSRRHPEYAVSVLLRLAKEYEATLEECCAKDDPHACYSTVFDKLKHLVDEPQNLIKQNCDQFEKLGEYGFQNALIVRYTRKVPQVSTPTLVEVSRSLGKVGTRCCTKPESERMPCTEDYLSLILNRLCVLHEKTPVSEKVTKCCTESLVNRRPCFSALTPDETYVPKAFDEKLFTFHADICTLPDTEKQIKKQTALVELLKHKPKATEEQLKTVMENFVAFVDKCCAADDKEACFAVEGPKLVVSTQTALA
Description: ELISA: Antibodies designed against the heparin-binding domain of ApoE were tested for their affinity to ApoE3 and ApoEch mutant recombinant proteins using ELISA. The Ni-NTA HisSorb Plates (Qiagen) were washed 3 times with wash buffer 1 (DY008). The ApoE recombinant proteins were suspended in buffer (DY008) to give a final concentration of 0.5 μg/ml. The plates were incubated with 200 μl of ApoE recombinant proteins for 2 hours, and washed 5 times with 1x wash buffer (DY008). The plates were then incubated with antibodies at a serial dilution of from 1:1,000 to 1:32,000 for overnight at 4° C. The plate was then washed 5 times in 1X wash buffer (DY008), and incubated with anti-mouse HRP (Abcam; ab97046, 1:10,000) for 45 minutes, followed by 5 washes in 1x wash buffer to ensure complete removal of unbound secondary antibody. The sulfuric acid from the ELISA reagent kit (DY008) was warmed to 37° C. […] The plate was then read using Synery 2 microplate reader (BioTek Instrument. Inc) and the Gen5 version1.11 software).
To generate monoclonal antibodies against the heparin-binding domain of ApoE, mice were immunized using the wild type ApoE peptide: KLH-[…]-CONH₂ (SEQ ID NO:54), and the ApoEch peptide: KLH-[…]-CONH₂ (SEQ ID NO:55). […] Seven antibodies generated were analyzed by ELISA as examples, as described in the materials and methods section.

[6] = biological target: T2, C-terminal wild type ApoE3 recombinant protein (human, UniProt P02649 143-317, limits assumed); test: ELISA, His-tagged ApoE protein on Ni-NTA plate, antibody diluted 1:1000 to 1:32000, absorbance 450 nm against dilution factor
T2 construct: also called C-terminal form of wild type ApoE3; c-terminus of the APOE3WT protein; not shown: histidine tag
Description: Antibodies designed against the heparin binding domain of APOE were tested for affinity to APOE3 and APOEch mutant recombinant protein using an ELISA. The Ni-NTA HisSorb Plates (Qiagen) plates were washed 3 times with wash buffer 1 (DY008), the APOE recombinant proteins were suspended in buffer (DY008) to give a final concentration of 0.5 μg/ml. The plates were incubated with 200 μl for 2 hours. The plate was then washed 5 times with 1x wash buffer (DY008), the plates were then incubated with antibodies in a serial dilution series from 1:1000 to 1:32000 and incubated overnight at 4° C. The plate is then washed 5 times in 1X wash buffer (DY008). The plates were then incubated with Anti-mouse HRP (Abcam; ab97046) (1:10000) for 45 minutes. The plate was then washed 5 times in 1x wash buffer to ensure complete removal of unbound secondary antibody. The Sulfuric acid from the ELISA reagent kit (DY008) was warmed to 37° C. prior to addition of 100 μl of tetramethylbenzidine (Millipore) initiating the detection phase of the reaction. […] The plate was then read using Synery 2 microplate reader (BioTek Instrument. Inc) and the Gen5 version1.11 software).
The 19G10-2 antibody was further evaluated using Heparin-Affinity chromatography, Western Blotting, Quantitative ELISA for chromatography fractions, and ELISA for binding analyses. […]

[7] = biological target: T3, C-terminal domain ApoE3ch mutant recombinant protein (amino acids 125 to 299) (human, UniProt P02649 143-317); test: ELISA, His-tagged ApoE protein on Ni-NTA plate, antibody diluted 1:1000 to 1:32000, anti-mouse HRP, absorbance 450 nm; x axis (printed 'Antibody Concentation') counts the dilution factor
T3 construct: also called C-terminal ApoE3ch mutant protein; APOE3 mutant c terminal protein; not shown: histidine tag
T3 chain: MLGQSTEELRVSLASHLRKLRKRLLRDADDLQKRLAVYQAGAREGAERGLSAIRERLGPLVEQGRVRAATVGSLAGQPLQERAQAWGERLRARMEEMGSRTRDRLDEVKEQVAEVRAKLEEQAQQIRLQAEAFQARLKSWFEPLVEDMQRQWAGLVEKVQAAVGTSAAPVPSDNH
Description: (§1) ELISA: Antibodies designed against the heparin-binding domain of ApoE were tested for their affinity to ApoE3 and ApoEch mutant recombinant proteins using ELISA. The Ni-NTA HisSorb Plates (Qiagen) were washed 3 times with wash buffer 1 (DY008). The ApoE recombinant proteins were suspended in buffer (DY008) to give a final concentration of 0.5 μg/ml. The plates were incubated with 200 μl of ApoE recombinant proteins for 2 hours, and washed 5 times with 1x wash buffer (DY008). The plates were then incubated with antibodies at a serial dilution of from 1:1,000 to 1:32,000 for overnight at 4° C. The plate was then washed 5 times in 1X wash buffer (DY008), and incubated with anti-mouse HRP (Abcam; ab97046, 1:10,000) for 45 minutes, followed by 5 washes in 1x wash buffer to ensure complete removal of unbound secondary antibody. The sulfuric acid from the ELISA reagent kit (DY008) was warmed to 37° C. 100 μl of tetramethylbenzidine (Millipore) was added to initiate the detection phase of the reaction. After a 5-min incubation, sulfuric acid was added to terminate the reaction. The plate was then read using Synery 2 microplate reader (BioTek Instrument. Inc) and the Gen5 version1.11 software).
(§2) To generate monoclonal antibodies against the heparin-binding domain of ApoE, mice were immunized using the wild type ApoE peptide: KLH-[…]-CONH₂ (SEQ ID NO:54), and the ApoEch peptide: KLH-[…]-CONH₂ (SEQ ID NO:55). A cysteine residue was added at the N-terminus to facilitate conjugation of the peptides. Cell fusions were obtained from positive clones and cell supernatants tested for activity against the wild type and mutant peptides and proteins. Seven antibodies generated were analyzed by ELISA as examples, as described in the materials and methods section.

[8] = biological target: T4, full-length ApoE3ch (ApoE3 Christchurch R136S) mutant recombinant protein (His-tagged) (human, UniProt P02649 19-317); test: as above
T4 construct: also called ApoE3ch full length protein; APOE3ch Mutant; not shown: histidine tag
Description: as §1, §2

[9] = biological target: T5, ApoEch peptide KLH-CTEELRVSLASHLRK-CONH2 (human, not fully specified; C-terminal amide (CONH2); printed with KLH on the added N-terminal cysteine); test: ELISA of the monoclonal antibody purified from cloned hybridoma, O.D. 450 nm against antibody concentration (ng/mL, log axis)
T5 construct: also called Mut peptide; mutant ApoE peptide
T5 peptide: CTEELRVSLASHLRK

[10] = biological target: T5, ApoEch peptide KLH-CTEELRVSLASHLRK-CONH2; test: as above
[11] = biological target: T4, full-length ApoE3ch (ApoE3 Christchurch …); test: ELISA subclones analysis, 7C11-1 serum on mutant protein, O.D. 450 nm against dilution factor
[12] = biological target: T6, wild type ApoE peptide KLH-CTEELRVRLASHLRK-CONH2 (human, not fully specified; C-terminal amide (CONH2); printed with KLH on the added N-terminal cysteine); test: ELISA, parental hybridoma clone
T6 construct: also called WT peptide; ApoE3 WT peptide
T6 peptide: CTEELRVRLASHLRK

[13] = biological target: T4, full-length ApoE3ch (ApoE3 Christchurch …); test: ELISA, parental hybridoma clone
[14] = biological target: T5, ApoEch peptide KLH-CTEELRVSLASHLRK-CONH2; test: ELISA, parental hybridoma clone
[15] = biological target: T7, full-length wild type human ApoE3 recombinant protein (His-tagged) (human, UniProt P02649 19-317); test: ELISA, parental hybridoma clone
T7 construct: Recombinant protein from Innovagen; also called ApoE3 WT full-length protein; APOE3 WT; not shown: histidine tag

[16] = biological target: T1, bovine serum albumin (BSA); test: ELISA, BSA as control coat, antibody diluted 1:1000 to 1:32000, absorbance 450 nm; x axis counts the dilution factor; remark: listed apart in the source

Neg. ctrl (Table 6) showed an absorbance (ELISA) [1] of 0.051 absorbance, an absorbance (ELISA) [2] of 0.068 absorbance and an absorbance (ELISA) [3] of 0.056 absorbance. The absorbance (ELISA) [4] was 0.048 absorbance.

B1: antibody 19G10-2 (antibody, V domains shown)
VH: EVQLQQSGAELVRPGALVKLSCKASGFNIKDYHMHWVKERPEQGLEWIGWIDPENGNTMYDPKFQGKASITADTSSNTAYLQLSSLTSEDTAVYYCVRGTARASFDYWGQGTTLTVSS
VL: DIVLTQSPASLAVSLGQRATISCKASQSVDYDGDSYMNWYQQKSGQPPKLLIYAASNLESGIPARFSGSGSGTDFTLNIHPVEEEDAATYYCQQSNVDPWTFGGGTKLEIK
notes: Tested as serum, as hybridoma supernatant and as purified monoclonal; also called 19G10-2 antibody serum; monoclonal antibody hybridoma supernatant 19G10-2
B1: no binding (tested: 1:1000 dilution) [5]; no binding (tested: 1:1000 dilution) [6]; binds [7]. B1: binds [8]; binds [9].

B2: antibody 25F1-2 (antibody, V domains shown)
VH: B1 VH with L20W, M34I, E39Q, E46D, N55I, G56D, N57K, M59L, S69R, V97A
VL: B1 VL with S35T, S44P, A54T, E85V, V97E
notes: also called 25F1-2 antibody serum; monoclonal antibody hybridoma supernatant 25F1-2
B2: binds [10]; no binding (tested: 1:1000 dilution) [5]; binds [7]. B2: binds [8].

B3: antibody 7C11-1 (antibody, V domains shown)
VH: EVKLVESGGGLVQPGGSLKLSCAASGFTFSRYTMSWVRQTPEKRLEWVAKIRNVGGITYYPDTVKGRFTISRDNAKNTLYLQMSSLKSEDTAMYYCARHYYGSEDYFDYWGQGTTLTVSS
VL: B1 VL with I2N, S44P, L50V, L51F, D74N, V97E
notes: The limits without signal peptide (20-139, 21-131) come from CLM-00005; also called 7C11-1 serum
In the case of B3, the binding result [11] is reported as “no binding (tested: 1:10 dilution)”, the “absorbance (ELISA)” value [12] is reported as 1.28 absorbance and the “absorbance (ELISA)” value [13] is reported as 0.055 absorbance. The “absorbance (ELISA)” value [14] was 0.058 absorbance and the “absorbance (ELISA)” value [15] was 0.689 absorbance.

B4: mouse antibody 1343ab (antibody, mouse IgG1, kappa, V domains shown)
VH: EVQLQQSGAELVRPGALVKLSCKASGFNIKDYHLHWVKQRPEQGLEWIGWIDPENGNVIYDPKFQGKATMTVVTSSNTAYLQLRSLTSEDTAVYFCTRGTARASFDYWGQGTSLTVSS
VL: DIVLTQSPASLAVSLGQRATISCKASQSVDYDGENYMNWYQQKPGQSPKLLIYVASNLESGIPARFSGSGSGTDFTLNIHPVEEEDAATYYCQQSNLDPWTFGGGTKLEIKR
modifications: N-linked glycosylation detected on heavy chain constant region N at 292; loss of C-terminal lysine observed
notes: also called 23B2
B4: no binding (tested: 1:1000 dilution) [16].
